Where “and” joins values, the source holds several entries; their conditions need not be identical. Equal values may be shown once.
Target: the molecule itself
Assay: mass photometry; NS5 alone at 20 nM in MP buffer (50 mM HEPES, pH 7.5, 40 mM NaCl, 10 mM MgCl2); TwoMP (Refeyn); DENV NS3 and NS5 as mass standards; oligomers assigned from peak masses

B1: Full-length lineage II WNV NS5 (enzyme)
chain: not shown
notes: also called full-length NS5; viral polymerase
With B1 the “stoichiometry N” value was 2 and 3 and 4.

— article PMC12455937, “Interaction of West Nile virus NS5 with orthoflavivirus SLA RNAs and their effects on viral replication and inhibition” (Journal of Virology, 2025)
